This note sets out measurements from US20230235011A1 (BEIJING BEYOND BIOTECHNOLOGY, published 2023).

One assay addresses T1, trop-2 protein (UniProt P09758 27-274, limits assumed).
T1 construct: Bought antigen, used as the SPR analyte; The printed catalogue number is doubtful
T1 sequence (looked up): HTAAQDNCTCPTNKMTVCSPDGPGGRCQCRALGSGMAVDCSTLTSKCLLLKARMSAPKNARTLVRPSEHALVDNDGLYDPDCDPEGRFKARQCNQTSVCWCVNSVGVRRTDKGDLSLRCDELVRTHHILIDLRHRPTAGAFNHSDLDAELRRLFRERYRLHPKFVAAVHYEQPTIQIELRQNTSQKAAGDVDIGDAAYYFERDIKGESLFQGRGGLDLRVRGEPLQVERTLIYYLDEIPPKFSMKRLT
Description: SPR (Biacore T100, 25 C); binder captured on anti-human IgG CM5 chip, trop-2 protein as analyte. Background: In SPR one partner is held on a chip, and binding of the other changes the refractive index at the surface.

Another assay has as its target T2, GPC-3 protein (UniProt P51654 25-559, limits assumed).
T2 construct: Bought antigen, used as the SPR analyte; also called Glypican-3
The experiment in a line: SPR (Biacore T100, 25 C); binder captured on anti-human IgG CM5 chip, GPC-3 protein as analyte.

T2 sequence (P51654 25-559 limits assumed): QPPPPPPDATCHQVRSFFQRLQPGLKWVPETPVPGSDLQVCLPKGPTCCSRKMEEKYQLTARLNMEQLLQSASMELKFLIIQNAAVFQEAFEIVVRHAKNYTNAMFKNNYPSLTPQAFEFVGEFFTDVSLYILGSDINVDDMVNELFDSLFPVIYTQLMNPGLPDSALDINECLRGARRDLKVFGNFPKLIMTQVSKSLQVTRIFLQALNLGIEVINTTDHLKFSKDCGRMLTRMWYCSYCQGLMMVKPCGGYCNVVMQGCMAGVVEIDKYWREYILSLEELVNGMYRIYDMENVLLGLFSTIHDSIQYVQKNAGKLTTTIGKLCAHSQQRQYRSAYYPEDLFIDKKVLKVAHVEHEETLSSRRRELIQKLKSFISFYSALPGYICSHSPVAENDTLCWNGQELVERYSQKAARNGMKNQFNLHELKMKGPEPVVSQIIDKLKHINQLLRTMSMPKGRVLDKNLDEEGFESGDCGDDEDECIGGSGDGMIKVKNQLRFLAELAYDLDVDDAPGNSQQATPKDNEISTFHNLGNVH

B1: anti-trop-2 antibody BY43 (sacituzumab) (antibody, human IgG1, kappa, V domains shown)
VH: QVQLQQSGSELKKPGASVKVSCKASGYTFTNYGMNWVKQAPGQGLKWMGWINTYTGEPTYTDDFKGRFAFSLDTSVSTAYLQISSLKADDTAVYFCARGGFGSSYWYFDVWGQGSLVTVSS
VL: DIQLTQSPSSLSASVGDRVSITCKASQDVSIAVAWYQQKPGKAPKLLIYSASYRYTGVPDRFSGSGSGTDFTLTISSLQPEDFAVYYCQQHYITPLTFGAGTKVEIKR
notes: Made in-house from INN 10418; also called control antibody BY43
One may read the Kd as the equilibrium constant for the complex coming apart. What is called koff is the first-order rate constant of dissociation. Low readings indicate a long-lived complex, high ones a short-lived complex. The kon is a measure of how fast the partners come together. Higher therefore signals fast association. As for B1, in the assay with trop-2 protein, the Kd was determined as 0.857 nM, the koff amounted to 4.82e-05 s⁻¹ and the kon was found to be 56300 M⁻¹ s⁻¹.

B2: anti-GPC-3 antibody BY20.2 (codrituzumab) (antibody, human IgG1, kappa, V domains shown)
VH: QVQLVQSGAEVKKPGASVKVSCKASGYTFTDYEMHWVRQAPGQGLEWMGALDPKTGDTAYSQKFKGRVTLTADKSTSTAYMELSSLTSEDTAVYYCTRFYSYTYWGQGTLVTVSS
VL: DVVMTQSPLSLPVTPGEPASISCRSSQSLVHSNRNTYLHWYLQKPGQSPQLLIYKVSNRFSGVPDRFSGSGSGTDFTLKISRVEAEDVGVYYCSQNTHVPPTFGQGTKLEIKR
notes: Made in-house from INN 9759; If the listing has 19, the mature range is 20-238; also called control antibody BY20.2
In the assay with GPC-3 protein, B2 came in with a Kd of 2.08 nM, a koff of 7.57e-05 s⁻¹ and a kon of 36400 M⁻¹ s⁻¹.
